B1: MARVEL domain-containing protein 2 (Homo sapiens), Q8N4S9 (parent)
chain: MSNDGRSRNRDRRYDEVPSDLPYQDTTIRTHPTLHDSERAVSADPLPPPPLPLQPPFGPDFYSSDTEEPAIAPDLKPVRRFVPDSWKNFFRGKKKDPEWDKPVSDIRYISDGVECSPPASPARPNHRSPLNSCKDPYGGSEGTFSSRKEADAVFPRDPYGSLDRHTQTVRTYSEKVEEYNLRYSYMKSWAGLLRILGVVELLLGAGVFACVTAYIHKDSEWYNLFGYSQPYGMGGVGGLGSMYGGYYYTGPKTPFVLVVAGLAWITTIIILVLGMSMYYRTILLDSNWWPLTEFGINVALFILYMAAAIVYVNDTNRGGLCYYPLFNTPVNAVFCRVEGGQIAAMIFLFVTMIVYLISALVCLKLWRHEAARRHREYMEQQEINEPSLSSKRKMCEMATSGDRQRDSEVNFKELRTAKMKPELLSGHIPPGHIPKPIVMPDYVAKYPVIQTDDERERYKAVFQDQFSEYKELSAEVQAVLRKFDELDAVMSRLPHHSESRQEHERISRIHEEFKKKKNDPTFLEKKERCDYLKNKLSHIKQRIQEYDKVMNWDVQGYS

The variants in the assay derive from B1. The following applies: with plmn_human PLG.
K217A;K252A: the “effect of a mutation on the interaction” value is “disrupting interaction strength”.
Regarding K252A, the “effect of a mutation on the interaction” value was “decreasing interaction strength”.
As to K217A, the “effect of a mutation on the interaction” value was “decreasing interaction strength”.

(Values after IntAct's records for PubMed 26822058.)
